Results as given in patent US20220177596A1 (Bristol-Myers Squibb, published 2022).
Values joined by “and” are separate entries in the source; they are usually repeats but may differ in a detail not shown here. Equal entries are not always repeated.

Legend:
[1] = molecular target: human CD40 on primary human cells (tonsillar B cells, immature dendritic cells) (human, UniProt P25942 21-277); experiment: cell-based or functional assay
[2] = molecular target: T1, human-CD40 monomer (human, UniProt P25942 21-193, limits assumed); experiment: SPR, Ab captured on protein A, CD40 monomer analyte
T1 construct: also called hCD40-monomer; human-CD40-monomer protein
T1 sequence (P25942 21-193 limits assumed): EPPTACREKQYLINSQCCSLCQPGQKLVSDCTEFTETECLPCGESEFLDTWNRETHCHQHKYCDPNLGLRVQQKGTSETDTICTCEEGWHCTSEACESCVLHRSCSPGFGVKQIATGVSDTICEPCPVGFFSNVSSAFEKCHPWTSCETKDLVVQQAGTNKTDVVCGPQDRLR
Description: Based on the supernatant screening SPR data and bias towards constructs with fewer framework back-mutations, a subset of humanized Y1238 antibodies were selected for expression, purification, and further characterization. Two of these antibodies (i.e., Y1238-hz1 and Y1238-hz2) were formatted with P238K and N297A isotypes (i.e., SEQ ID NOS: 39, 40, 42, and 43 for heavy chains; see TABLE 15 for light chains) and tested for CD40 and FcgR binding by SPR. […] The Fc domain is underlined.

[3] = molecular target: T1, human-CD40 monomer; experiment: SPR 2 pt screen, Ab on protein A
Outline: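 Antibodies as IgG1.3f supernatants (100-fold diluted) or purified chimeric IgG1, captured on a protein A chip; hCD40 monomer flowed over at 200 and 1000 nM by SPR. Kinetic and affinity values from a 1:1 Langmuir fit.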

[4] = molecular target: T1, human-CD40 monomer; experiment: SPR full kinetics, Ab on protein A
Protocol: The VH sequences were formatted in the context of an IgG1.3f isotype. The Vκ sequences were formatted as a full light chain with a common CL sequence. All 55 combinations of these humanized HC and LC constructs, as well as the chimeric Y1238 molecule were expressed as 3 ml supernatants for binding analysis by SPR. […] All antibodies, except for those containing hz-HC3, captured at high levels (>300 RU) using a 100-fold dilution of the expression supernatant, indicating a high antibody titer in the supernatant except for the hz-HC3 samples. The kinetic data for the two concentrations of hCD40-monomer were fit to a 1:1 Langmuir model, to yield estimates of the kinetic and affinity values for these interactions, and for comparison of the different molecules. […] Also, for a given heavy chain, the antibodies with light chains hz-LC1 or hz-LC2 had higher CD40 affinity than those with hz-LC3, hz-LC4 or hz-LC5.

[5] = molecular target: T1, human-CD40 monomer; experiment: SPR, Ab captured on protein A, CD40 monomer analyte; remark: listed apart in the source
Protocol: These chimeric antibodies were tested for CD40 and FcgR binding by SPR, as well as for iDC activation.

[6] = molecular target: T1, human-CD40 monomer; experiment: as above; remark: listed apart in the source
[7] = molecular target: T2, hCD64-His (human, UniProt P12314 16-288, limits assumed); experiment: SPR (BIAcore): 7 µg/ml hCD64-His captured on an anti-His Fab surface, 1 µM antibody as analyte
T2 construct: Generated in house; captured on anti-His Fab; also called hFcgRI; FcgRI
T2 sequence (P12314 other isoform, or with tags, fused parts or gaps limits assumed): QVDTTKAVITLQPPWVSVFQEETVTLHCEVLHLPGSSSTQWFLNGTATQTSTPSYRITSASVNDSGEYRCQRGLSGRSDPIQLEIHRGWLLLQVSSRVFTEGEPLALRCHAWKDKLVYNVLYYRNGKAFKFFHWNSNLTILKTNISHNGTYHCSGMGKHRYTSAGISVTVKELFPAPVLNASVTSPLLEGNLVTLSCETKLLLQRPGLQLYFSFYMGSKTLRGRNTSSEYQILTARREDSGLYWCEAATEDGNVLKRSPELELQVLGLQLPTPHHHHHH
Protocol: FCGR BINDING SPR: FcgR binding can be measured in vitro using purified FcgRs using methods such as BIAcore™ surface plasmon resonance (SPR). One method tests the binding of purified antibodies to His-tagged FcgR proteins (FcgR-His) which are captured on the immobilized Fab fragment of an anti-His antibody. These experiments are performed on either a BIAcore™ T100 or BIAcore™ T200 instrument (GE Healthcare Life Sciences, Marlborough, Mass.) at 25° C. The Fab fragment from a murine anti-6×His antibody (generated in house) is immobilized on a CMS sensor chip using standard ethyl(dimethylaminopropyl) carbodiimide (EDC)/N-hydroxysuccinimide (NHS) chemistry with ethanolamine blocking, to a density of ˜3000 RU in a running buffer of 10 mM HEPES pH 7.4, 150 mM NaCl, 3 mM EDTA, 0.05% surfactant p20 (HBS-EP+). All remaining studies are performed using a running buffer of 10 mM NaPO4, 130 mM NaCl, 0.05% p20 (PBS-T) pH 7.1. Various FcγR proteins containing a C-terminal 6× poly-histidine tag (generated in house) are captured on this surface (typically using FcgR-his protein concentration of ˜7 μg/ml) using a contact time of 30 sec at 10 μl/min. Various concentrations of purified antibody are tested for binding, for example using an association time of 120 seconds at 30 μl/min, and a dissociation time of 120 seconds at 30 μl/min. FcgR proteins tested in these studies include the “high affinity” FcgR CD64 (hFcgRI), as well as the “low affinity” FcgRs CD32a-H131 (FcgRIIa-H131), CD32a-R131 (FcgRIIa-R131), CD32b (FcgRIIb), CD16a-V158 (FcgRIIIa-V158), and CD16b-NA2 (FcgRIIIb-NA2).

Chain of human CD40 on primary human cells (tonsillar B cells, immature dendritic cells) (P25942 21-277 limits assumed): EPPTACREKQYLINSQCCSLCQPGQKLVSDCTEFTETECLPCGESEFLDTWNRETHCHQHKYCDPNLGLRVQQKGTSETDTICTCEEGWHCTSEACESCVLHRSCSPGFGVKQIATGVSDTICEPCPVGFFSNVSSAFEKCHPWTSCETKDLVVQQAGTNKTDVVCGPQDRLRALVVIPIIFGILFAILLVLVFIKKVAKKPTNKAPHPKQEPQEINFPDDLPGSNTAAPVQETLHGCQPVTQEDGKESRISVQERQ

B1: Y1238-hz2-N297A (antibody, human IgG1, kappa, N297A)
heavy: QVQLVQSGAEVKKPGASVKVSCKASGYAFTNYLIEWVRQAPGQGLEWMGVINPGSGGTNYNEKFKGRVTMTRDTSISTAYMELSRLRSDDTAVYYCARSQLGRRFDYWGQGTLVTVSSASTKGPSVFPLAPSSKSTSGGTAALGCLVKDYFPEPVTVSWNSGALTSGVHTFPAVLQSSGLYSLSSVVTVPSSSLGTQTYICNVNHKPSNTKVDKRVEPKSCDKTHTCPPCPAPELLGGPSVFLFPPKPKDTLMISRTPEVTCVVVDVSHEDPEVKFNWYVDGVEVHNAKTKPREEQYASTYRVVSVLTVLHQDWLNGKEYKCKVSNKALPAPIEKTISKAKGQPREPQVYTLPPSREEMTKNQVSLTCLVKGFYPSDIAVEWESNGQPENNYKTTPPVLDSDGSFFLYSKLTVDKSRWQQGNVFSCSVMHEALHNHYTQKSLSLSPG
light: DIQMTQSPSSLSASVGDRVTITCKASQDVRTGVAWYQQKPGKAPKLLIYSASYRNTGVPSRFSGSRSGTDFTFTISSLQPEDIATYYCQQHYSPPYTFGGGTKVEIKRTVAAPSVFIFPPSDEQLKSGTASVVCLLNNFYPREAKVQWKVDNALQSGNSQESVTEQDSKDSTYSLSSTLTLSKADYEKHKVYACEVTHQGLSSPVTKSFNRGEC
notes: Humanized Y1238
- IC50 for inhibition of proliferation of B cells, CD40L Trimer [1]: 2.9 ng/mL
- IC50 for inhibition of proliferation of B cells, CHO CD40L [1]: 20 ng/mL
- Kd [2]: 6 nM
- koff [2]: 0.0004 s⁻¹
- kon [2]: 66000 M⁻¹ s⁻¹

B2: Y1238-hz2-P238K (antibody, human IgG1, kappa)
heavy: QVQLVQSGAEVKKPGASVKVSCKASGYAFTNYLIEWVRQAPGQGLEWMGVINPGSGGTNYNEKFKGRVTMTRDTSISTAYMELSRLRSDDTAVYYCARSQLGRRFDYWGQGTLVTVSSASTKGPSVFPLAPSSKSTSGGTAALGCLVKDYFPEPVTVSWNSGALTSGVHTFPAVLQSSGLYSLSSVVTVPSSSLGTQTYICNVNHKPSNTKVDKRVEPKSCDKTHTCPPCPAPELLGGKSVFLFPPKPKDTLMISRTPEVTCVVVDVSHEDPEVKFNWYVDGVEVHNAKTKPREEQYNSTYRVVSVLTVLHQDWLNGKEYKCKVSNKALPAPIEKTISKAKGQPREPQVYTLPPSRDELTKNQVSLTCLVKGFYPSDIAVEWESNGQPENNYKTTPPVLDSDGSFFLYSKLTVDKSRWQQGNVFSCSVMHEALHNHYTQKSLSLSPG
light: B1 light
notes: Humanized Y1238
- IC50 for inhibition of proliferation of B cells, CD40L Trimer [1]: 2.7 ng/mL
- IC50 for inhibition of proliferation of B cells, CHO CD40L [1]: 21 ng/mL
- Kd [2]: 6.2 nM
- koff [2]: 0.00043 s⁻¹
- kon [2]: 70000 M⁻¹ s⁻¹

B3: BI-mAb-B (antibody, human IgG1, kappa, L234A L235A, V domains shown)
VH: EVQLVESGGGLVKPGGSLRLSCAASGFTFSDYGMHWVRQAPGKGLEWVAYISSGNRIIYYADTVKGRFTISRDNAKNSLYLQMNSLRAEDTAVYYCARQDGYRYAMDYWGQGTLVTVSS
VL: DIVMTQSPDSLAVSLGEKVTINCKSSQSLLNSGNQKNYLTWHQQKPGQPPKLLIYWTSTRESGVPDRFSGSGSGTDFTLTISSLQAEDVAVYYCQNDYTYPLTFGGGTKVEIKR
notes: Comparator anti-CD40 antibody; also called Antibody B (U.S. Pat. No. 9,090,696)
- IC50 for inhibition of proliferation of B cells, CD40L Trimer [1]: 7.4 ng/mL
- Kd [2]: 35 nM
- koff [2]: 0.0021 s⁻¹
- kon [2]: 61000 M⁻¹ s⁻¹

B4: Y1238 (antibody, V domains shown)
VH: QVQLQQSGAELVRPGTSVKVSCKASGYAFTNYLIEWVKQRPGQGLEWIGVINPGSGGTNYNEKFKGKATLTADKSSSTAYMQLSSLTSDDSAVYFCARSQLGRRFDYWGQGTTLTVSS
VL: DIVMTQSHKFMSTSVGDRVSITCKASQDVRTGVAWYQQKPGQSPKLLIYSASYRNTGVPDRFTGSRSGTDFTFTISSVQAEDLAVYYCQQHYSPPYTFGGGTKLEIK
- IC50 for inhibition of proliferation of B cells, CD40L Trimer [1]: 3.4 ng/mL
- IC50 for inhibition of proliferation of B cells, CHO CD40L [1]: 19.9 ng/mL

B5: chimeric Y1238 supernatant (Sup 56; HC-Chim / LC-Chim) (antibody)
VH: B4 VH
light: DIVMTQSHKFMSTSVGDRVSITCKASQDVRTGVAWYQQKPGQSPKLLIYSASYRNTGVPDRFTGSRSGTDFTFTISSVQAEDLAVYYCQQHYSPPYTFGGGTKLEIKRTVAAPSVFIFPPSDEQLKSGTASVVCLLNNFYPREAKVQWKVDNALQSGNSQESVTEQDSKDSTYSLSSTLTLSKADYEKHKVYACEVTHQGLSSPVTKSFNRGEC
notes: Tested as expression supernatant
- Kd [3]: 5.6 nM
- koff [3]: 0.00032 s⁻¹
- kon [3]: 57000 M⁻¹ s⁻¹
- Kd [4]: 2.6 nM
- koff [4]: 0.00022 s⁻¹
- kon [4]: 86000 M⁻¹ s⁻¹

B6: purified Y1238-chimeric IgG1 antibody (antibody)
VH: B4 VH
light: B5 light
notes: Called IgG1; also called Y1238-IgG1; chimeric, purified
- Kd [3]: 6.7 nM and 6.9 nM and 8.6 nM
- koff [3]: 0.00038 s⁻¹ and 0.0004 s⁻¹ and 0.0005 s⁻¹
- kon [3]: 56000 M⁻¹ s⁻¹ and 59000 M⁻¹ s⁻¹ and 58000 M⁻¹ s⁻¹
- Kd [4]: 3.2 nM
- koff [4]: 0.00027 s⁻¹
- kon [4]: 83000 M⁻¹ s⁻¹

B7: Y1238-IgG1.3f (antibody)
heavy: QVQLQQSGAELVRPGTSVKVSCKASGYAFTNYLIEWVKQRPGQGLEWIGVINPGSGGTNYNEKFKGKATLTADKSSSTAYMQLSSLTSDDSAVYFCARSQLGRRFDYWGQGTTLTVSSASTKGPSVFPLAPSSKSTSGGTAALGCLVKDYFPEPVTVSWNSGALTSGVHTFPAVLQSSGLYSLSSVVTVPSSSLGTQTYICNVNHKPSNTKVDKRVEPKSCDKTHTCPPCPAPEAEGAPSVFLFPPKPKDTLMISRTPEVTCVVVDVSHEDPEVKFNWYVDGVEVHNAKTKPREEQYNSTYRVVSVLTVLHQDWLNGKEYKCKVSNKALPAPIEKTISKAKGQPREPQVYTLPPSREEMTKNQVSLTCLVKGFYPSDIAVEWESNGQPENNYKTTPPVLDSDGSFFLYSKLTVDKSRWQQGNVFSCSVMHEALHNHYTQKSLSLSPGK
light: B5 light
notes: Chimeric mouse/human anti-human CD40; also called Y1238-hIgG1.3f; chimeric Y1238 IgG1.3f
- Kd [5]: 2.1 nM
- koff [5]: 0.00021 s⁻¹
- kon [5]: 100000 M⁻¹ s⁻¹

B8: 5F11-45-CTza (antibody, human IgG1, kappa)
heavy: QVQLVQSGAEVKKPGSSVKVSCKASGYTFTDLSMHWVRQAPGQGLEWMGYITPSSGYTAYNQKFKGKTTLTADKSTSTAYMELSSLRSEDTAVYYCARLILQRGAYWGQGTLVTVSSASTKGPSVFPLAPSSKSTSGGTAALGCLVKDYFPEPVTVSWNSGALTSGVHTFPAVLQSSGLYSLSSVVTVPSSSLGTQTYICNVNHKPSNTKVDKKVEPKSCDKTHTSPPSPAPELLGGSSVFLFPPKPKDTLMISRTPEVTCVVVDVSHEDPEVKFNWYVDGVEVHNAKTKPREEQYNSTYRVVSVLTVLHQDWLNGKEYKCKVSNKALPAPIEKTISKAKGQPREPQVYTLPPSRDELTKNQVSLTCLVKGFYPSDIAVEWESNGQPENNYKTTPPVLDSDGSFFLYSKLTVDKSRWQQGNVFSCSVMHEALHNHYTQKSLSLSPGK
light: DIVLTQSPDSLAVSLGERATINCRASKNVDSYGNSFMHWYQQKPGQPPKLLIYRASNLESGVPDRFSGSGSGTDFTLTISSLQAEDVAVYYCQQSNEDPLTFGQGTKLEIKRTVAAPSVFIFPPSDEQLKSGTASVVCLLNNFYPREAKVQWKVDNALQSGNSQESVTEQDSKDSTYSLSSTLTLSKADYEKHKVYACEVTHQGLSSPVTKSFNRGEC
- Kd [6]: 1.6 nM
- koff [6]: 0.00014 s⁻¹
- kon [6]: 88000 M⁻¹ s⁻¹
- binding result [7]: binds

B9: 5F11-45-IgG1.3f (antibody)
heavy: QVQLVQSGAEVKKPGSSVKVSCKASGYTFTDLSMHWVRQAPGQGLEWMGYITPSSGYTAYNQKFKGKTTLTADKSTSTAYMELSSLRSEDTAVYYCARLILQRGAYWGQGTLVTVSSASTKGPSVFPLAPSSKSTSGGTAALGCLVKDYFPEPVTVSWNSGALTSGVHTFPAVLQSSGLYSLSSVVTVPSSSLGTQTYICNVNHKPSNTKVDKRVEPKSCDKTHTCPPCPAPEAEGAPSVFLFPPKPKDTLMISRTPEVTCVVVDVSHEDPEVKFNWYVDGVEVHNAKTKPREEQYNSTYRVVSVLTVLHQDWLNGKEYKCKVSNKALPAPIEKTISKAKGQPREPQVYTLPPSREEMTKNQVSLTCLVKGFYPSDIAVEWESNGQPENNYKTTPPVLDSDGSFFLYSKLTVDKSRWQQGNVFSCSVMHEALHNHYTQKSLSLSPGK
light: B8 light
- Kd [6]: 1.6 nM
- koff [6]: 0.00013 s⁻¹
- kon [6]: 82000 M⁻¹ s⁻¹

B10: 5F11-45-N297A (antibody, human IgG1, kappa, N297A)
heavy: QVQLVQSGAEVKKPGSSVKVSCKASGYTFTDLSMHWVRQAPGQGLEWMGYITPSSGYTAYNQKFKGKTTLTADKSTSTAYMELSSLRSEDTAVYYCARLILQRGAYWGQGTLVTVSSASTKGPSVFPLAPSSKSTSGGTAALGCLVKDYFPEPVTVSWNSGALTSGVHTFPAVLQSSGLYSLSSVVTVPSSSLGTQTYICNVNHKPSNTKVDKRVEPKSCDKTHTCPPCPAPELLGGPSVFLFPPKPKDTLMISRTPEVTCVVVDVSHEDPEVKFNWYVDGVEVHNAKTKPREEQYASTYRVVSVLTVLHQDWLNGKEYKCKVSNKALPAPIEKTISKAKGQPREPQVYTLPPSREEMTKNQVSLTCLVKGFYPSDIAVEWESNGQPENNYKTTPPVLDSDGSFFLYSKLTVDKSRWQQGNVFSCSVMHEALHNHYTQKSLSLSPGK
light: B8 light
- Kd [6]: 2.8 nM
- koff [6]: 0.00022 s⁻¹
- kon [6]: 80000 M⁻¹ s⁻¹
- binding result [7]: binds

B11: humanized Y1238 hz1 (hz-HC1 / hz-LC1), IgG1.3f (antibody, V domains shown)
VH: QVQLVQSGAEVKKPGASVKVSCKASGYAFTNYLIEWVRQAPGQGLEWMGVINPGSGGTNYNEKFKGRVTMTRDTSISTAYMELSRLRSDDTAVYYCARSQLGRRFDYWGQGTLVTVSS
VL: DIQMTQSPSSLSASVGDRVTITCKASQDVRTGVAWYQQKPGKAPKLLIYSASYRNTGVPSRFSGSGSGTDFTFTISSLQPEDIATYYCQQHYSPPYTFGGGTKVEIK
notes: IgG1.3f heavy constant, common CL; expression supernatant; also called Sup 1
- Kd [3]: 4.2 nM
- koff [3]: 0.0002 s⁻¹
- kon [3]: 48000 M⁻¹ s⁻¹
- Kd [4]: 3 nM
- koff [4]: 0.00019 s⁻¹
- kon [4]: 65000 M⁻¹ s⁻¹
